This is an account of results in FireProtDB (doi:10.1093/protein/12.7.581).

Several values for one entry are separate records, joined by “and”; a condition that tells them apart may be missing. Identical values can stand only once.

B1: Alpha-lactalbumin, P00711 (parent)
chain: MMSFVSLLLVGILFHATQAEQLTKCEVFRELKDLKGYGGVSLPEWVCTTFHTSGYDTQAIVQNNDSTEYGLFQINNKIWCKDDQNPHSSNICNISCDKFLDDDLTDDIMCVKKILDKVGINYWLAHKALCSEKLDQWLCEKL

This data set covers variants of B1. The following applies: Bos taurus; pH 7.4; Thermal; CD; Tris-HCl 20 mM; CaCl2 1 mM; reversible: yes(>95%); structure 1HFZ; whole UniProt chain shown.

As for MMSFVSLLLVGILFHATQAEQLTKCEVFRELKDLKGYGGVSLPEWVCTTFHTSGYDTQAIVQNNDSTEYGLFAINNKIWCKDDQNPHSSNICNISCDKFLDDDLTDDIMCVKKILDKVGINYWLAHKALCSEKLDQWLCEKL [Q73A], the Tm is 54.3 °C and 56.2 °C; the “change of melting temperature, mutant - wild type (higher = more stable)” value (“change of melting temperature, mutant” below) was -1.9 °C; the “ddG of mutation (higher = less stable)” value was 0.41 kcal/mol; the “unfolding enthalpy (van 't Hoff)” value was found to be 67.6 kcal/mol.

For MMSFVSLLLVGILFHATQAEQLTKCEVFRELKDLKGYGGVSLPEWVCTTFHTSGYDTQAIVQNNDSTEYGLFQINNKIWCKDDQNPHSSNICNISCDKFLDDDLTDDIMCVKKILDKVGINYWLAHKALCSEKLDAWLCEKL [Q136A], the Tm was 52.1 °C and 56.2 °C; the “change of melting temperature, mutant” value was -4.1 °C; the “ddG of mutation (higher = less stable)” value was 0.96 kcal/mol; the “unfolding enthalpy (van 't Hoff)” value stood at 73.4 kcal/mol.

As for MMSFVSLLLVGILFHATQAEQLTKCEVFRELKDLKGYGGVSLPEWVCTTFHTSGYDTQAIVQNNDSTEYGLFQINNKIWCKDDQNPHSSNICNISCDKFLDDDLTDDIMCVKKILDKVGINYWLAWKALCSEKLDQWLCEKL [H126W], the “change of melting temperature, mutant” value is -8.7 °C; the “ddG of mutation (higher = less stable)” value came out at 1.72 kcal/mol; the “unfolding enthalpy (van 't Hoff)” value was determined as 57.8 kcal/mol.

For the variant MMSFVSLLLVGILFHATQAEQLTKCEVFRELKDLKGYGGVSLPEWVCTTFHTSGYDTQAIVQNNDSTEYGLFQINNKIWCKDDQNPHSSNICNISCDKFLDDDLTDDIMCVKKILDKVGINYWLAAKALCSEKLDQWLCEKL [H126A], the Tm was 52.1 °C and 56.2 °C; the “change of melting temperature, mutant” value is -4.1 °C; the “ddG of mutation (higher = less stable)” value was determined as 0.79 kcal/mol; the “unfolding enthalpy (van 't Hoff)” value came out at 60.5 kcal/mol.

As to MMSFVSLLLVGILFHATQAEQLTKCEVFRELKDLKGYGGVSLPEWVCTTFHTSGYDTQAIVQNNDSTEYGLFQINNKIWCKDDQNPHSSNICNISCDKFLDDDLTDDIMCVKKILDKVGINYWLAYKALCSEKLDQWLCEKL [H126Y], the Tm is 55.2 °C and 56.2 °C; the “change of melting temperature, mutant” value is -1 °C; the “ddG of mutation (higher = less stable)” value was determined as 0.19 kcal/mol; the “unfolding enthalpy (van 't Hoff)” value worked out at 62.9 kcal/mol.

Turning to MMSFVSLLLVGILFHATQAEQLTKCEVFRELKDLKGYGGVSLPEWVCTTFHTSGYDTQAIVQNNDSTEYGLFQINNKWWCKDDQNPHSSNICNISCDKFLDDDLTDDIMCVKKILDKVGINYWLAHKALCSEKLDQWLCEKL [I78W], the Tm was 51.7 °C and 56.2 °C; the “change of melting temperature, mutant” value is -4.5 °C; the “ddG of mutation (higher = less stable)” value was 0.93 kcal/mol; the “unfolding enthalpy (van 't Hoff)” value turned out to be 65 kcal/mol.

On to MMSFVSLLLVGILFHATQAEQLTKCEVFRELKDLKGYGGVSLPEWVCTTFYTSGYDTQAIVQNNDSTEYGLFQINNKIWCKDDQNPHSSNICNISCDKFLDDDLTDDIMCVKKILDKVGINYWLAHKALCSEKLDQWLCEKL [H51Y], for which the Tm was determined as 56.5 °C; the “change of melting temperature, mutant” value was 0.3 °C; the “unfolding enthalpy (van 't Hoff)” value is 73.6 kcal/mol.

Consider MMSFVSLLLVGILFHATQAEQLTKCEVFRELKDLKGYGGVSLPEWVCTTFATSGYDTQAIVQNNDSTEYGLFQINNKIWCKDDQNPHSSNICNISCDKFLDDDLTDDIMCVKKILDKVGINYWLAHKALCSEKLDQWLCEKL [H51A], for which the “change of melting temperature, mutant” value was -11.6 °C; the “ddG of mutation (higher = less stable)” value was determined as 2.13 kcal/mol; the “unfolding enthalpy (van 't Hoff)” value amounted to 50.4 kcal/mol.

With MMSFVSLLLVGILFHATQAEQLTKCEVFRELKDLKGYGGVSLPEWVCTTFHTSGYDTQAIVQNNDSTEYGLFQINNKIWCKDDQNPHSSNICNISCDKFLDDDLTDDIMCVKKILDKVGINYWLSHKALCSEKLDQWLCEKL [A125S], the “change of melting temperature, mutant” value is -6.1 °C; the “ddG of mutation (higher = less stable)” value is 1.05 kcal/mol; the “unfolding enthalpy (van 't Hoff)” value came out at 51.6 kcal/mol.

With MMSFVSLLLVGILFHATQAEQLTKCEVFRELKDLKGYGGVSLPEWVCTTFHTSGYDTQAIVQNNDSTEYGLFQINNKIWCKDDQNPHSSNICNISCDKFLDDDLTDDIMCVKKILDKVGINYWLAHKALCSEQLDQWLCEKL [K133Q], the Tm is 53.5 °C and 56.2 °C; the “change of melting temperature, mutant” value was -2.7 °C; the “ddG of mutation (higher = less stable)” value stood at 0.6 kcal/mol; the “unfolding enthalpy (van 't Hoff)” value turned out to be 69.5 kcal/mol.

As to MMSFVSLLLVGILFHATQAEQLTKCEVFRELKDLKGYGGVSLPEWVCTTFHTSGYDTQAIVQNNDSTEYGLFQINNKIWCKDDQNPHSSNICNISCDKFLDDDLTDDIMCVKKILDKVGINYWLAHKALCSENLDQWLCEKL [K133N], the “change of melting temperature, mutant” value was 10.7 °C; the “ddG of mutation (higher = less stable)” value is -2.65 kcal/mol; the “unfolding enthalpy (van 't Hoff)” value came out at 91.3 kcal/mol.

For MMSFVSLLLVGILFHATQAEQLTKCEVFRELKDLKGYGGVSLPEWVCTTFHTSGYDTQAIVQNNDSTEYGLFQINNKIWCKDDQNPHSSNICNISCDKFLDDDLTDDIMCVKKILDKVGINYWLAHKALCSEELDQWLCEKL [K133E], the Tm was found to be 53 °C; the “change of melting temperature, mutant” value was -3.2 °C; the “unfolding enthalpy (van 't Hoff)” value worked out at 62.9 kcal/mol.

With MMSFVSLLLVGILFHATQAEQLTKCEVFRELKDLKGYGGVSLPEWVCTTFHTSGYDTQAIVQNNDSTEYGLFQINNKIWCKDDQNPHSSNICNISCDKFLDDDLTDDIMCVKKILDKVGINAWLAHKALCSEKLDQWLCEKL [Y122A], the “change of melting temperature, mutant” value is -10.7 °C; the “ddG of mutation (higher = less stable)” value came out at 2.39 kcal/mol; the “unfolding enthalpy (van 't Hoff)” value came out at 64.3 kcal/mol.

In the case of MMSFVSLLLVGILFHATQAEQLTKCEVFRELKDLKGYGGVSLPEWVCTTFHTSGYDTQAIVQNNDSTEYGLFQINNKIWCKDDQNPHSSNICNISCDKFLDDDLTDDIMCVKKILDKVGINPWLAHKALCSEKLDQWLCEKL [Y122P], the Tm is 55.1 °C and 56.2 °C; the “change of melting temperature, mutant” value was -1.1 °C; the “ddG of mutation (higher = less stable)” value stood at 0.22 kcal/mol; the “unfolding enthalpy (van 't Hoff)” value stood at 62.1 kcal/mol.

With MMSFVSLLLVGILFHATQAEQLTKCEVFRELKDLKGYGGVSLPEWVCTTFHTSGYDTQAIVQNNDSTEYGLFQINNKIWCKDDQNPHSSNICNISCDKFLDDDLTDDIMCVKKILDKVGINYYLAHKALCSEKLDQWLCEKL [W123Y], the Tm was determined as 56.2 °C and the “ddG of mutation (higher = less stable)” value is 2.44 kcal/mol.

For MMSFVSLLLVGILFHATQAEQLTKCEVFRELKDLKGYGGVSLPEWVCTTFHTSGYDTQAIAQNNDSTEYGLFQINNKIWCKDDQNPHSSNICNISCDKFLDDDLTDDIMCVKKILDKVGINYWLAHKALCSEKLDQWLCEKL [V61A], the Tm is 51.7 °C and 56.2 °C; the “change of melting temperature, mutant” value was -4.5 °C; the “ddG of mutation (higher = less stable)” value came out at 0.93 kcal/mol; the “unfolding enthalpy (van 't Hoff)” value was found to be 64.3 kcal/mol.

Regarding MMSFVSLLLVGILFHATQAEQLTKCEVFRELKDLKGYGGVSLPEWVCTTFHTSGYDTQAINQNNDSTEYGLFQINNKIWCKDDQNPHSSNICNISCDKFLDDDLTDDIMCVKKILDKVGINYWLAHKALCSEKLDQWLCEKL [V61N], the Tm was found to be 55.1 °C; the “change of melting temperature, mutant” value is -1.1 °C; the “unfolding enthalpy (van 't Hoff)” value stood at 67.2 kcal/mol.

As to MMSFVSLLLVGILFHATQAEQLTKCEVFRELKDLKGYGGVSLPEWVCTTFHTSGYDTQAIGQNNDSTEYGLFQINNKIWCKDDQNPHSSNICNISCDKFLDDDLTDDIMCVKKILDKVGINYWLAHKALCSEKLDQWLCEKL [V61G], the “change of melting temperature, mutant” value was -5.2 °C; the “ddG of mutation (higher = less stable)” value stood at 1.15 kcal/mol; the “unfolding enthalpy (van 't Hoff)” value turned out to be 68.6 kcal/mol.

As to MMSFVSLLLVGILFHATQAEQLTKCEVFRELKDLKGYGGVSLPEWVCTTFHTSGYDTQAIVQNNDSTEYGLFQINNKIWCKDDQNPHSSNICNISCDKFLDDDLTDDIMCVKKILDKVGINYWLAHKALCSEKLDQHLCEKL [W137H], the Tm is 52.9 °C and 56.2 °C; the “change of melting temperature, mutant” value was -3.3 °C; the “ddG of mutation (higher = less stable)” value came out at 0.6 kcal/mol; the “unfolding enthalpy (van 't Hoff)” value turned out to be 56.2 kcal/mol.

MMSFVSLLLVGILFHATQAEQLTKCEVFRELKDLKGYGGVSLPEWVCTTFHTSGYDTQAIVQNNDSTEYGLFQINNKIWCKDDQNPHSSNICNISCDKFLDDDLTDDIMCVKKILDKVGINYWLAHKALCSEKLDQYLCEKL [W137Y]: the “change of melting temperature, mutant” value was -5.4 °C; the “ddG of mutation (higher = less stable)” value was determined as 1.17 kcal/mol; the “unfolding enthalpy (van 't Hoff)” value came out at 67.2 kcal/mol.

In the case of MMSFVSLLLVGILFHATQAEQLTKCEVFRELKDLKGYGGVSLPEWVCTTFHTSGYDTQAIVQNNDSTEYGLFQINNKIWCKDDQNPHSSNICNISCDKFLDDDLTDDIMCVKKILDKVGINYWLAHKAHCSEKLDQWLCEKL [L129H], the “change of melting temperature, mutant” value worked out at 6.3 °C; the “ddG of mutation (higher = less stable)” value was -1.39 kcal/mol; the “unfolding enthalpy (van 't Hoff)” value was found to be 77.4 kcal/mol.

MMSFVSLLLVGILFHATQAEQLTKCEVFRELKDLKGYGGVSLPEWVCTTFHTSGYDTQAIVQNNDSTEYGLFQINNKIWCKDDQNPHSSNICNISCDKFLDDDLTDDIMCVKKILDKVGINYWLAHKAECSEKLDQWLCEKL [L129E]: the Tm was 55.1 °C and 56.2 °C; the “change of melting temperature, mutant” value was -1.1 °C; the “ddG of mutation (higher = less stable)” value was found to be 0.19 kcal/mol; the “unfolding enthalpy (van 't Hoff)” value came out at 58.6 kcal/mol.

Consider MMSFVSLLLVGILFHATQAEQLTKCEVFRELKDLKGYGGVSLPEWVCTTFHTSGYDTQAIVQNNDSTEYGLFQINNKIWCKDDQNPHSSNICNISCDKFLDDDLTDDIMCVKKILDKVGINYWLAHKARCSEKLDQWLCEKL [L129R], for which the Tm is 58.1 °C and 56.2 °C; the “change of melting temperature, mutant” value was found to be 1.9 °C; the “ddG of mutation (higher = less stable)” value was -0.43 kcal/mol; the “unfolding enthalpy (van 't Hoff)” value stood at 76.5 kcal/mol.
